Consider one molecule from publication PMC10470007 (The Journal of Biological Chemistry, 2023).

By Kd is commonly meant the free concentration of one partner at which half of the binding sites on the other are occupied at equilibrium, for simple one-to-one binding. Read a low Kd as higher affinity.

This test has as its target T1, 1N3R Tau protein isoform with a V5 insertion between E73 and A74 (V5 epitope tag (simian virus 5 P/V …, strain, labeled with Alexa Fluor 488 NHS (succinimidyl) ester, 2:1 NHS Alexa:Tau-V5)).
T1 construct: also called Tau-V5; labeled Tau-V5
The test is described as follows: flow cytometry on cells. The following applies: one partner purified. (In general: Flow cytometry measures light scatter and fluorescence of single cells or particles in a stream.)

B1: NbV5-AGAP2-Halo-myc (VHH)
VHH: EVQLQASGGGFVQPGGSLRLSCAASGTTSFGDTMGWFRQAPGKEREFVSAISRQGDKHYYADSVKGRFTISRDNSKNTVYLQMNSLRAEDTATYYCAEWMNTRREFITPYWGQGTQVTVSS
notes: also called NbV5 (yeast surface display)
B1 returned a Kd of 29 nM.
